In article PMC2885523:

Biological target: MP81, in vitro-synthesized, [35S]-labeled (T. brucei)
Assay: co-IP

Substance: TbTUT4-MD (TbTUT4 TUTase with grafted RET2 middle domain), in vitro-synthesized, [35S]-labeled (from UniProt Q381M1;Q86MV5)
- fold increase of immunoprecipitation on addition of MP81: 2 fold
